# Measured values from IntAct's records for PubMed 19033529.
# B1: Protein phosphatase 2C 16 (Arabidopsis thaliana (Mouse-ear cress)), Q9CAJ0 (parent)
# chain: MEEMTPAVAMTLSLAANTMCESSPVEITQLKNVTDAADLLSDSENQSFCNGGTECTMEDVSELEEVGEQDLLKTLSDTRSGSSNVFDEDDVLSVVEDNSAVISEGLLVVDAGSELSLSNTAMEIDNGRVLATAIIVGESSIEQVPTAEVLIAGVNQDTNTSEVVIRLPDENSNHLVKGRSVYELDCIPLWGTVSIQGNRSEMEDAFAVSPHFLKLPIKMLMGDHEGMSPSLTHLTGHFFGVYDGHGGHKVADYCRDRLHFALAEEIERIKDELCKRNTGEGRQVQWDKVFTSCFLTVDGEIEGKIGRAVVGSSDKVLEAVASETVGSTAVVALVCSSHIVVSNCGDSRAVLFRGKEAMPLSVDHKPDREDEYARIENAGGKVIQWQGARVFGVLAMSRSIGDRYLKPYVIPEPEVTFMPRSREDECLILASDGLWDVMNNQEVCEIARRRILMWHKKNGAPPLAERGKGIDPACQAAADYLSMLALQKGSKDNISIIVIDLKAQRKFKTRT
# partner: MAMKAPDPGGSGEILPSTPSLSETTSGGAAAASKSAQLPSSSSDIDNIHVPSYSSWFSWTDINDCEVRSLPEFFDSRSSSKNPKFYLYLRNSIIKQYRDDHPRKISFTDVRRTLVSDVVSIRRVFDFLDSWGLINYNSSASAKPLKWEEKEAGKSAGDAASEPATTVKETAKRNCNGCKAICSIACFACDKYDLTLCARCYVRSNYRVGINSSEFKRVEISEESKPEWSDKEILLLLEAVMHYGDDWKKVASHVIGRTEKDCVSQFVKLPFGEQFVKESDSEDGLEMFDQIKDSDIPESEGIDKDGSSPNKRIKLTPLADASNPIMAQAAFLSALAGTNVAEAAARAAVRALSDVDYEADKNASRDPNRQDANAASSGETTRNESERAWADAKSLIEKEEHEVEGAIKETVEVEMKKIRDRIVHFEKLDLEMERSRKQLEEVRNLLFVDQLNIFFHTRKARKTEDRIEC
# Variants of: B1
# Details: with swi3b_arath SWI3B
row,effect of a mutation on the interaction,Variant
1,disrupting interaction,MEEMTPAVAMTLSLAANTMCESSPVEITQLKNVTDAADLLSDSENQSFCNGGTECTMEDVSELEEVGEQDLLKTLSDTRSGSSNVFDEDDVLSVVEDNSAVISEGLLVVDAGSELSLSNTAMEIDNGRVLATAIIVGESSIEQVPTAEVLIAGVNQDTNTSEVVIRLPDENSNHLVKGRSVYELDCIPLWGTVSIQGNRSEMEDAFAVSPHFLKLPIKMLMGDHEGMSPSLTHLTGHFFGVYDGHDGHKVADYCRDRLHFALAEEIERIKDELCKRNTGEGRQVQWDKVFTSCFLTVDGEIEGKIGRAVVGSSDKVLEAVASETVGSTAVVALVCSSHIVVSNCGDSRAVLFRGKEAMPLSVDHKPDREDEYARIENAGGKVIQWQGARVFGVLAMSRSIGDRYLKPYVIPEPEVTFMPRSREDECLILASDGLWDVMNNQEVCEIARRRILMWHKKNGAPPLAERGKGIDPACQAAADYLSMLALQKGSKDNISIIVIDLKAQRKFKTRT [G246D]
